Reference: publication PMC5940917

Assays:
[1] = biological target: rat ASIC1a/2a heteromeric channel stably expressed in CHO cells (rat) (UniProt P55926)
[2] = biological target: rat ASIC1a/2a heteromeric channel stably expressed in CHO cells (rat) (UniProt P55926); remark: listed apart in the source
[3] = biological target: rat ASIC1a/2a heteromeric channel stably expressed in CHO cells (rat) (UniProt P55926); remark: listed apart in the source

UniProt P55926, sequence (P55926 whole entry, chain 1 of 2): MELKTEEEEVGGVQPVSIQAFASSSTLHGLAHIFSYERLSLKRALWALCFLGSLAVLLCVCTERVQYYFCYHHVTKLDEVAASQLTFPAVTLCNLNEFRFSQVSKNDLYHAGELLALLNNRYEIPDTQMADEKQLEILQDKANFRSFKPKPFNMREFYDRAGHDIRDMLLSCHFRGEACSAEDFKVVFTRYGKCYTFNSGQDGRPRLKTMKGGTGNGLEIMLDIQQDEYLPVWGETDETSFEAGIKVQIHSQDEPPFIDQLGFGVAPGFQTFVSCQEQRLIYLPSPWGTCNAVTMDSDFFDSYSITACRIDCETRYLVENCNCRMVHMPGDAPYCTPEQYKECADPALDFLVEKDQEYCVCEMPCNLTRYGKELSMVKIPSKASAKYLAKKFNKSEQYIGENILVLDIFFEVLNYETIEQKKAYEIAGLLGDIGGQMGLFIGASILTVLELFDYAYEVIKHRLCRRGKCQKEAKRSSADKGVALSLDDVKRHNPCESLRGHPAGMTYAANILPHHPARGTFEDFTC
UniProt P55926, sequence (P55926 other isoform, or with tags, fused parts or gaps, chain 2 of 2): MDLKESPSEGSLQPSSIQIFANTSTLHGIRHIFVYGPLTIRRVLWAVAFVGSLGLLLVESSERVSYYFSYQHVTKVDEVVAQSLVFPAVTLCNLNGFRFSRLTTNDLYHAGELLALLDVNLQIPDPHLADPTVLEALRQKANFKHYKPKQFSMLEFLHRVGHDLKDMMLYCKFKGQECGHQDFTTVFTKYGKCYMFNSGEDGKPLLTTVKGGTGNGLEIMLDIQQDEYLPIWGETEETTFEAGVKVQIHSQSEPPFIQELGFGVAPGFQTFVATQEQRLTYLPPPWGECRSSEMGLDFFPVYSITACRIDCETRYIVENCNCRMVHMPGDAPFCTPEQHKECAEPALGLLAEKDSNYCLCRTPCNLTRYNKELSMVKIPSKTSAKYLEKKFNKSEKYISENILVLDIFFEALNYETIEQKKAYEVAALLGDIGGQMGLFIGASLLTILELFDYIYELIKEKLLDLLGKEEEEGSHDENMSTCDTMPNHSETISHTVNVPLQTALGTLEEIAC

## Psalmotoxin (PcTx1) (from UniProt P60514 1-40) (peptide)
[1]
  current clamp on CHO cells: potentiation of pH6.8-induced membrane depolarization at conditioning pH 7.4, 1-300 nM PcTx1: 56.1 nM
  whole-cell patch clamp on CHO cells: potentiation of pH6.8-induced current at conditioning pH 7.4, 1-300 nM PcTx1: 124 nM
[2]
  threshold concentration of PcTx1 for potentiation of pH6.8-induced responses at conditioning pH 7.4 (wash-off experiments; CHO cells, rat and mouse cortical neurons): < 10 nM
[3]
  whole-cell patch clamp on CHO cells: inhibition of pH6.0-induced current at conditioning pH 7.0, 1-300 nM PcTx1 (inhibition incomplete, plateau ~75%): 2.9 nM
